Measurements as given in patent US20110262474A1.

What was measured:
[1] = biological target: recombinant WT HIV-1 JRCSF gp120 core polypeptide (HIV-1 subtype B, strain JRCSF) (UniProt P20871); experiment: SPR (Biacore 2000), KA = ka/kd from a single-site fit; * best curve fit, dissociation slower than the limit of detection of the instrument
[2] = biological target: recombinant WT HIV-1 JRCSF gp120 full-length polypeptide (HIV-1 subtype B, strain JRCSF) (UniProt P20871); experiment: as above
[3] = biological target: HIV-1 1196 gp160 envelope protein on pseudovirus (HIV-1 subtype B, strain 1196); experiment: cell-based or functional assay
[4] = biological target: HIV-1 6535 gp160 envelope protein on pseudovirus (HIV-1 subtype B, strain 6535); experiment: cell-based or functional assay
[5] = biological target: HIV-1 92HT594 gp160 envelope protein on pseudovirus (HIV-1 subtype B, strain 92HT594); experiment: cell-based or functional assay
[6] = biological target: HIV-1 92RW020 gp160 envelope protein on pseudovirus (HIV-1 subtype A, strain 92RW020); experiment: cell-based or functional assay
[7] = biological target: HIV-1 93BR020 gp160 envelope protein on pseudovirus (HIV-1 subtype F, strain 93BR020); experiment: cell-based or functional assay
[8] = biological target: HIV-1 93BR029 gp160 envelope protein on pseudovirus (HIV-1 subtype F, strain 93BR029); experiment: cell-based or functional assay
[9] = biological target: HIV-1 93MW960 gp160 envelope protein on pseudovirus (HIV-1 subtype C, strain 93MW960); experiment: cell-based or functional assay
[10] = biological target: HIV-1 93TH305 gp160 envelope protein on pseudovirus (HIV-1 subtype E, strain 93TH305); experiment: cell-based or functional assay
[11] = biological target: HIV-1 BaL gp160 envelope protein on pseudovirus (HIV-1 subtype B, strain BaL); experiment: cell-based or functional assay
[12] = biological target: HIV-1 JRCSF gp160 envelope protein on pseudovirus (HIV-1 subtype B, strain JRCSF) (UniProt P20871); experiment: cell-based or functional assay
[13] = biological target: HIV-1 NL4-3 gp160 envelope protein on pseudovirus (HIV-1 subtype B, strain NL4-3); experiment: cell-based or functional assay
[14] = biological target: HIV-1 QH0692 gp160 envelope protein on pseudovirus (HIV-1 subtype B, strain QH0692); experiment: cell-based or functional assay
[15] = biological target: HIV-1 QZ4589 gp160 envelope protein on pseudovirus (HIV-1 subtype B, strain QZ4589); experiment: cell-based or functional assay
[16] = biological target: HIV-1 SF162 gp160 envelope protein on pseudovirus (HIV-1 subtype B, strain SF162); experiment: cell-based or functional assay
[17] = biological target: HIV-1 VLGCG4 gp160 envelope protein on pseudovirus (HIV-1 subtype G, strain VLGCG4); experiment: cell-based or functional assay
[18] = biological target: amphotropic MLV envelope protein on pseudovirus (amphotropic murine leukemia virus); experiment: cell-based or functional assay
[19] = biological target: chimeric gp120 core polypeptide variant L7-043CDC; experiment: SPR (Biacore 2000), KA = ka/kd from a single-site fit
[20] = biological target: chimeric gp120 core polypeptide variant L7-043; experiment: as above
[21] = biological target: recombinant WT HIV-1 JRCSF gp120 core polypeptide (HIV-1 subtype B, strain JRCSF) (UniProt P20871); experiment: as above
[22] = biological target: recombinant WT HIV-1 JRCSF gp120 full-length polypeptide (HIV-1 subtype B, strain JRCSF) (UniProt P20871); experiment: as above
[23] = biological target: chimeric gp120 core polypeptide variant L7-043; experiment: SPR (Biacore 2000), KA relative to the JR-CSF gp120 core row (= 1)
[24] = biological target: recombinant WT HIV-1 JRCSF gp120 core polypeptide (HIV-1 subtype B, strain JRCSF) (UniProt P20871); experiment: SPR (Biacore 2000), mAb captured on anti-human gamma chain antibody, gp120 injected
[25] = biological target: recombinant WT HIV-1 JRCSF gp120 full-length polypeptide (HIV-1 subtype B, strain JRCSF) (UniProt P20871); experiment: as above
[26] = biological target: chimeric gp120 core polypeptide variant L7-043CDC; experiment: SPR (Biacore 2000), mAb captured on anti-human gamma chain antibody, gp120 core injected

human monoclonal antibody IgG1b6
Ka [1]: 6.32e+12 M⁻¹ | Ka [2]: 4.08e+11 M⁻¹

human monoclonal antibody IgG1b12
IC50 neutralization titer of pseudovirus (luciferase entry assay) [3]: 0.48 µg/mL | IC50 neutralization titer of pseudovirus (luciferase entry assay) [4]: 0.64 µg/mL | IC50 neutralization titer of pseudovirus (luciferase entry assay) [5]: 0.02 µg/mL | IC50 neutralization titer of pseudovirus (luciferase entry assay) [6]: 1.67 µg/mL | IC50 neutralization titer of pseudovirus (luciferase entry assay) [7]: 2.08 µg/mL | IC50 neutralization titer of pseudovirus (luciferase entry assay) [8]: 1.67 µg/mL | IC50 neutralization titer of pseudovirus (luciferase entry assay) [9]: 0.06 µg/mL | IC50 neutralization titer of pseudovirus (luciferase entry assay) [10]: 0.71 µg/mL | IC50 neutralization titer of pseudovirus (luciferase entry assay) [11]: 0.01 µg/mL | IC50 neutralization titer of pseudovirus (luciferase entry assay) [12]: 0.06 µg/mL | IC50 neutralization titer of pseudovirus (luciferase entry assay) [13]: 0.01 µg/mL | IC50 neutralization titer of pseudovirus (luciferase entry assay) [14]: 0.1 µg/mL | IC50 neutralization titer of pseudovirus (luciferase entry assay) [15]: 0.03 µg/mL | IC50 neutralization titer of pseudovirus (luciferase entry assay) [16]: 0.01 µg/mL | IC50 neutralization titer of pseudovirus (luciferase entry assay) [17]: 0.04 µg/mL | IC50 neutralization titer of pseudovirus (luciferase entry assay) [18]: > 2.5 µg/mL | Ka [19]: 2.58e+08 M⁻¹ | Ka [20]: 3.8e+08 M⁻¹ | Ka [21]: 3.43e+07 M⁻¹ | Ka [22]: 3.62e+07 M⁻¹ | Fold Increase [23]: 11 | Ka [24]: > 1e+07 M⁻¹ | Ka [25]: > 1e+07 M⁻¹ | fold increase in b12 affinity against JRCSF gp120 core polypeptide [26]: > 7.5 fold
